Test results as given in patent US20110150875A1.

Experiments:
[1] = molecular target: PCSK9-FLAG (Pan troglodytes (Chimpanzee); Homo sapiens (Human)) (UniProt A8T644); experiment: AlphaScreen, His-tagged matrilin-2 at log [Matrilin] uM -2.340283 with PCSK9-FLAG; triplicate, SD 469
[2] = molecular target: PCSK9-FLAG (Pan troglodytes (Chimpanzee); Homo sapiens (Human)) (UniProt A8T644); experiment: AlphaScreen, His-tagged matrilin-2 at log [Matrilin] uM -2.817405 with PCSK9-FLAG; triplicate, SD 412
[3] = molecular target: PCSK9-FLAG (Pan troglodytes (Chimpanzee); Homo sapiens (Human)) (UniProt A8T644); experiment: AlphaScreen, His-tagged matrilin-2 at log [Matrilin] uM -3.294526 with PCSK9-FLAG; triplicate, SD 495
[4] = molecular target: PCSK9-FLAG (Pan troglodytes (Chimpanzee); Homo sapiens (Human)) (UniProt A8T644); experiment: AlphaScreen, His-tagged matrilin-2 at log [Matrilin] uM -3.771647 with PCSK9-FLAG; triplicate, SD 220
[5] = molecular target: PCSK9-FLAG (Pan troglodytes (Chimpanzee); Homo sapiens (Human)) (UniProt A8T644); experiment: AlphaScreen, His-tagged matrilin-2 at log [Matrilin] uM -1.386041 with PCSK9-FLAG; triplicate, SD 1634
[6] = molecular target: PCSK9-FLAG (Pan troglodytes (Chimpanzee); Homo sapiens (Human)) (UniProt A8T644); experiment: AlphaScreen, His-tagged matrilin-2 at log [Matrilin] uM -1.863162 with PCSK9-FLAG; triplicate, SD 1131
[7] = molecular target: PCSK9-FLAG (Pan troglodytes (Chimpanzee); Homo sapiens (Human)) (UniProt A8T644); experiment: AlphaScreen, His-tagged matrilin-2 at log [Matrilin] uM -0.4317983 with PCSK9-FLAG; triplicate, SD 2548
[8] = molecular target: PCSK9-FLAG (Pan troglodytes (Chimpanzee); Homo sapiens (Human)) (UniProt A8T644); experiment: AlphaScreen, His-tagged matrilin-2 at log [Matrilin] uM -0.9089195 with PCSK9-FLAG; triplicate, SD 3028
[9] = molecular target: PCSK9-FLAG (Pan troglodytes (Chimpanzee); Homo sapiens (Human)) (UniProt A8T644); experiment: AlphaScreen competition, matrilin-2 at 11 nM; inhibition of PCSK9-Flag binding to His-tagged LDL receptor (competitor LDLR), relative to maximum signal without matrilin-2
[10] = molecular target: PCSK9-FLAG (Pan troglodytes (Chimpanzee); Homo sapiens (Human)) (UniProt A8T644); experiment: AlphaScreen competition, matrilin-2 at 34 nM; inhibition of PCSK9-Flag binding to His-tagged LDL receptor (competitor LDLR), relative to maximum signal without matrilin-2
[11] = molecular target: PCSK9-FLAG (Pan troglodytes (Chimpanzee); Homo sapiens (Human)) (UniProt A8T644); experiment: AlphaScreen competition, matrilin-2 at 1.3 nM; inhibition of PCSK9-Flag binding to His-tagged LDL receptor (competitor LDLR), relative to maximum signal without matrilin-2
[12] = molecular target: PCSK9-FLAG (Pan troglodytes (Chimpanzee); Homo sapiens (Human)) (UniProt A8T644); experiment: AlphaScreen competition, matrilin-2 at 3.8 nM; inhibition of PCSK9-Flag binding to His-tagged LDL receptor (competitor LDLR), relative to maximum signal without matrilin-2
[13] = molecular target: PCSK9-FLAG (Pan troglodytes (Chimpanzee); Homo sapiens (Human)) (UniProt A8T644); experiment: AlphaScreen competition, matrilin-2 at 0.14 nM; inhibition of PCSK9-Flag binding to His-tagged LDL receptor (competitor LDLR), relative to maximum signal without matrilin-2
[14] = molecular target: PCSK9-FLAG (Pan troglodytes (Chimpanzee); Homo sapiens (Human)) (UniProt A8T644); experiment: AlphaScreen competition, matrilin-2 at 0.42 nM; inhibition of PCSK9-Flag binding to His-tagged LDL receptor (competitor LDLR), relative to maximum signal without matrilin-2

UniProt A8T644, sequence (A8T644 31-152 limits assumed, chain 1 of 2): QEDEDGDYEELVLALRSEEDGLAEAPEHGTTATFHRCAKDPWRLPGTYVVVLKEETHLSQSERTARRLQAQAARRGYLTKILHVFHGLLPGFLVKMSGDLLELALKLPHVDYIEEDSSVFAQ
UniProt A8T644, sequence (A8T644 other isoform, or with tags, fused parts or gaps limits assumed, chain 2 of 2): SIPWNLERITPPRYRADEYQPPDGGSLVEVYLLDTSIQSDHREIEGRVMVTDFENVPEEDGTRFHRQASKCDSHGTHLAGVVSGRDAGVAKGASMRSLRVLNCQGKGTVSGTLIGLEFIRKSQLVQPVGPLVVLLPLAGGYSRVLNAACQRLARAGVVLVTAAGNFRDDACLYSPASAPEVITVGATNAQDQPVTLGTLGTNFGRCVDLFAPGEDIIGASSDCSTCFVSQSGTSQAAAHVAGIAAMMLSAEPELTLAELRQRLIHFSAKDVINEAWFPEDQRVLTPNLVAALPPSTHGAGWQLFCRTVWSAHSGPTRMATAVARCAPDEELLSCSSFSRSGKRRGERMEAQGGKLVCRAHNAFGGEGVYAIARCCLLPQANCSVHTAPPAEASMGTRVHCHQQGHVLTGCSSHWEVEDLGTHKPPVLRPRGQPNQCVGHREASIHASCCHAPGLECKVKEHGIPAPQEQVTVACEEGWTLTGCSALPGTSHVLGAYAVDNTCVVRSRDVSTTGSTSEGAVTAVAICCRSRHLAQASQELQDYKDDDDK

B1: His-tagged recombinant human matrilin-2 (mature, short isoform, Arg 24-Arg 937; R&D Systems Catalog Number 3044-MN) (protein, not shown: small tags and cut ends)
chain: RERSRGRSISRGRHARTHPQTALLESSCENKRADLVFIIDSSRSVNTHDYAKVKEFIVDILQFLDIGPDVTRVGLLQYGSTVKNEFSLKTFKRKSEVERAVKRMRHLSTGTMTGLAIQYALNIAFSEAEGARPLRENVPRVIMIVTDGRPQDSVAEVAAKARDTGILIFAIGVGQVDFNTLKSIGSEPHEDHVFLVANFSQIETLTSVFQKKLCTAHMCSTLEHNCAHFCINIPGSYVCRCKQGYILNSDQTTCRIQDLCAMEDHNCEQLCVNVPGSFVCQCYSGYALAEDGKRCVAVDYCASENHGCEHECVNADGSYLCQCHEGFALNPDKKTCTKIDYCASSNHGCQHECVNTDDSYSCHCLKGFTLNPDKKTCRRINYCALNKPGCEHECVNMEESYYCRCHRGYTLDPNGKTCSRVDHCAQQDHGCEQLCLNTEDSFVCQCSEGFLINEDLKTCSRVDYCLLSDHGCEYSCVNMDRSFACQCPEGHVLRSDGKTCAKLDSCALGDHGCEHSCVSSEDSFVCQCFEGYILREDGKTCRRKDVCQAIDHGCEHICVNSDDSYTCECLEGFRLAEDGKRCRRKDVCKSTHHGCEHICVNNGNSYICKCSEGFVLAEDGRRCKKCTEGPIDLVFVIDGSKSLGEENFEVVKQFVTGIIDSLTISPKAARVGLLQYSTQVHTEFTLRNFNSAKDMKKAVAHMKYMGKGSMTGLALKHMFERSFTQGEGARPLSTRVPRAAIVFTDGRAQDDVSEWASKAKANGITMYAVGVGKAIEEELQEIASEPTNKHLFYAEDFSTMDEISEKLKKGICEALEDSDGRQDSPAGELPKTVQQPTVQHRYLFEEDNLLRSTQKLSHSTKPSGSPLEEKHDQCKCENLIMFQNLANEEVRKLTQRLEEMTQRMEALENRLRYR
Alphascreen Signal (counts per second) [1]: 10100 | Alphascreen Signal (counts per second) [2]: 12900 | Alphascreen Signal (counts per second) [3]: 18800 | Alphascreen Signal (counts per second) [4]: 20200 | Alphascreen Signal (counts per second) [5]: 54000 | Alphascreen Signal (counts per second) [6]: 14100 | Alphascreen Signal (counts per second) [7]: 213000 | Alphascreen Signal (counts per second) [8]: 222000 | % inhibition [9]: 36% | % inhibition [10]: 50.7% | % inhibition [11]: 5.2% | % inhibition [12]: 17.1% | % inhibition [13]: 0.1% | % inhibition [14]: -0.4%
